Results taken from US20220251182A1, “AGENTS WHICH INHIBIT GADS DIMERIZATION AND METHODS OF USE THEREOF” (Technion Research & Development Foundation Limited, priority 2017, published 2022).
Square brackets hold non-standard residues; d marks the D form. Ends that are not written are not given here. pY = N[C@@H](Cc1ccc(OP(=O)(O)O)cc1)C(=O)O

B9: phospho-LAT (endogenous, TCR-stimulated Jurkat-derived dG32 T cells) (other, UniProt O43561-2 1-233, looked up)
chain: MEEAILVPCVLGLLLLPILAMLMALCVHCHRLPGSYDSTSSDSLYPRGIQFKRPHTVAPWPPAYPPVTSYPPLSQPDLLPIPRSPQPLGGSHRTPSSRRDSDGANSVASYENEEPACEDADEDEDDYHNPGYLVVLPDSTPATSTAAPSAPALSTPGIRDSAFSMESIDDYVNVPESGESAEASLDGSREYVNVSQELHPGAAKTEPAALSSQEAEEVEEEGAPDYENLQELN
modifications: tyrosine-phosphorylated after anti-TCR (C305) stimulation; detected with anti-phospho-LAT (pY132)
notes: Endogenous protein in lysates; also called pLAT; pY132-phosphorylated LAT

What was measured:
monomeric Gads SH2 = molecular target: T1, monomeric Gads SH2 (Homo sapiens, UniProt O75791); assay: Size exclusion chromatography of monomeric Gads SH2 incubated with LAT peptides; type: binding; settings: 0.7 μM MBP-Gads SH2 monomeric fraction, 5 μM peptide, 15 minutes on ice
T1 construct: The SH2 only construct encoded residues Q54-Q153 of Gads, and was tagged at the N-terminus with either MBP or His; made in house; host or cells: E. coli BL21 codon-plus
T1 sequence (O75791 54-153): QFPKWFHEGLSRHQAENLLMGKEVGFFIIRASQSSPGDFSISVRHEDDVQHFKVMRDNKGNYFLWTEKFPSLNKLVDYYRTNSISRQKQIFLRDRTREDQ
Experimental: FIG. 9A is a schematic representation of two possible modes of Gads binding to 2pY-LAT. […] In FIG. 9C, 0.7 μM full length MBP-Gads from the monomeric fraction, was incubated for 15 minutes at 37° C., either alone (solid line), or in the presence of 5 μM 2pY-LAT peptide (SEQ ID NO: 32, dotted line). […] 20 μM MBP-Gads SH2 from the dimeric fraction was incubated for 30 minutes on ice (blue) or at 37° C. for 15 minutes (red, solid line), followed by an additional 15 minutes at 37° C. in the presence of 40 μM of 2pY-LAT (SEQ ID NO: 32, red dotted line); and then resolved by size exclusion chromatography.
Fast protein liquid chromatography (FPLC)—MBP- and His-tagged proteins were resolved by size exclusion chromatography at 12° C., using an ÄKTA FPLC system (GE Healthcare), fitted with Superdex 200 10/300 or 16/60 HiLoad for MBP-tagged proteins or Superdex 75 10/300 for His-tagged proteins, in column buffer containing 20 mM HEPES pH 7.3, 100 mM NaCl, 1 mM EDTA, 10% glycerol.
Two possible modes of Gads binding to 2pY-LAT were envisioned, single and paired (FIG. 9A). To ensure the availability of both modes, a 7-fold molar excess of 2pY-LAT peptide was applied. In the absence of cooperativity, the large molar excess of unbound SH2-binding sites should favor unpaired binding (FIG. 9A, left).

[1] = molecular target: pY171-LAT peptide (singly phosphorylated on Y171); assay: isothermal titration calorimetry, 1:1 binding model (Affinimeter), linked-parameter analysis of three repeats
[2] = nano-DSF of dimeric MBP-Gads SH2, self-association
[3] = molecular target: pY171-LAT peptide (singly phosphorylated on Y171); assay: ITC at 25 C, peptide injected into monomeric MBP-Gads SH2; KD = 1/KA, 1:1 model
[4] = molecular target: the molecule itself; assay: size exclusion chromatography; self-association
[5] = nano-DSF of dimeric His-SH2, self-association
[6] = molecular target: the molecule itself; assay: size exclusion chromatography, Superdex 200 10/300 GL; self-association (dimer)
Experimental: Size-Exclusion Chromatography and Multi-Angle Light Scattering (SEC-MALS)—The average molecular weight of Gads proteins was determined by SEC-MALS. The system consisted of an ÄKTA avant 25, coupled to a UV detector (GE Healthcare) and a miniDAWN triple-angle light-scattering detector (Wyatt Technology). […] Data collection and analysis was performed with Wyatt's ASTRA 6.1.1 software.

[7] = molecular target: the molecule itself; assay: size exclusion chromatography; self-association; remark: listed apart in the source
[8] = molecular target: the molecule itself; assay: analytical size exclusion chromatography of the dimeric fraction after incubation at 37°C; self-association
[9] = molecular target: the molecule itself; assay: size exclusion chromatography; self-association; remark: listed apart in the source
[10] = molecular target: T2, N-terminally twin-strep-tagged full length human Gads-GFP F92D (human, UniProt O75791 1-330); assay: streptactin pull-down of twin-strep Gads-GFP from dG32 cell lysates, western blot with anti-pY132-LAT
T2 construct: Expressed in dG32 T cells and in Gads-deficient murine BMMCs; also called Gads F92D; F92D-reconstituted; not shown: N-terminal twin-strep tag; C-terminal monomeric GFP (A206K) from pMIGR
T2 sequence: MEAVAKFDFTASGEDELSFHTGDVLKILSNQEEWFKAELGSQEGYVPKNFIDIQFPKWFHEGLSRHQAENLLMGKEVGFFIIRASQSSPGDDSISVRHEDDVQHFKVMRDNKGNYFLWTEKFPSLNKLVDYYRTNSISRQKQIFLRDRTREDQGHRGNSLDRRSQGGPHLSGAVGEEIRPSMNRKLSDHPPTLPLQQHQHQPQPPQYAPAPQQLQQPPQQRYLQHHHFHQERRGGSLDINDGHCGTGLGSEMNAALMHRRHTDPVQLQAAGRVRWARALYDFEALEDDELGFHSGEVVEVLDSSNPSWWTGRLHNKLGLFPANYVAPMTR

[11] = molecular target: B9; assay: as above
[12] = molecular target: the molecule itself; assay: size exclusion chromatography, self-association

With “DDpYVNVPESGESAEASLDGSREpYVNVSQE (DD[pY]VNVPESGESAEASLDGSRE[pY]VNVSQE) [2pY-LAT, 29-residue LAT peptide encompassing tyrosines 171 and 191, doubly phosphorylated]” the “Gads mobility shift on size exclusion chromatography (paired binding / dimeric form)” value (monomeric Gads SH2) was “dramatic shift towards the dimeric form”.

B1: MBP-Gads SH2 (SH2 only construct, residues Q54-Q153 of Gads), wild type (protein)
chain: QFPKWFHEGLSRHQAENLLMGKEVGFFIIRASQSSPGDFSISVRHEDDVQHFKVMRDNKGNYFLWTEKFPSLNKLVDYYRTNSISRQKQIFLRDRTREDQ
In the case of B1, the H [1] is reported as -7230 cal/mol, the “temperature of subtle transition of the dimeric form (nano-DSF)” value [2] is reported as “approximately 33 °C” and the Kd [3] is reported as 177 nM.

B2: MBP-Gads SH2 F92A/R109A (other, not shown: large carriers; small tags and cut ends)
chain: MQFPKWFHEGLSRHQAENLLMGKEVGFFIIRASQSSPGDASISVRHEDDVQHFKVMADNKGNYFLWTEKFPSLNKLVDYYRTNSISRQKQIFLRDRTREDQ
notes: Double mutant in the context of MBP-Gads SH2; also called F92A/R109A SH2 mutant
With B2 the binding result [4] was “no binding”, the H [1] was -9030 cal/mol and the Kd [3] was 335 nM.

B3: His-tagged Gads SH2 (His-SH2) (protein)
chain: MHHHHHHGSMQFPKWFHEGLSRHQAENLLMGKEVGFFIIRASQSSPGDFSISVRHEDDVQHFKVMRDNKGNYFLWTEKFPSLNKLVDYYRTNSISRQKQIFLRDRTREDQ
With B3 the “temperature of monomerization (first nano-DSF transition)” value [5] was 32.5 °C.

B4: full length MBP-tagged Gads (MBP-Gads), wild type (other, not shown: large carriers)
chain: MEAVAKFDFTASGEDELSFHTGDVLKILSNQEEWFKAELGSQEGYVPKNFIDIQFPKWFHEGLSRHQAENLLMGKEVGFFIIRASQSSPGDFSISVRHEDDVQHFKVMRDNKGNYFLWTEKFPSLNKLVDYYRTNSISRQKQIFLRDRTREDQGHRGNSLDRRSQGGPHLSGAVGEEIRPSMNRKLSDHPPTLPLQQHQHQPQPPQYAPAPQQLQQPPQQRYLQHHHFHQERRGGSLDINDGHCGTGLGSEMNAALMHRRHTDPVQLQAAGRVRWARALYDFEALEDDELGFHSGEVVEVLDSSNPSWWTGRLHNKLGLFPANYVAPMTR
notes: Purified as monomeric and dimeric SEC fractions; also called full length Gads; Gads-MBP protein
B4: binds [6].

B5: MBP-Gads SH2 R109A (other)
chain: MQFPKWFHEGLSRHQAENLLMGKEVGFFIIRASQSSPGDFSISVRHEDDVQHFKVMADNKGNYFLWTEKFPSLNKLVDYYRTNSISRQKQIFLRDRTREDQ
notes: Point mutant in the context of MBP-Gads SH2; not shown: N-terminal MBP tag and its linker from pMAL-C5x (NEB)
B5: binds [7].

B6: MBP-Gads SH2 R109D (other, not shown: large carriers; small tags and cut ends)
chain: MQFPKWFHEGLSRHQAENLLMGKEVGFFIIRASQSSPGDFSISVRHEDDVQHFKVMDDNKGNYFLWTEKFPSLNKLVDYYRTNSISRQKQIFLRDRTREDQ
notes: Point mutant in the context of MBP-Gads SH2
B6: binds [7].

B7: MBP-Gads lacking the N-terminal SH3 (ΔN-SH3 Gads, Δ2-53) (other, not shown: large carriers; small tags and cut ends)
chain: MQFPKWFHEGLSRHQAENLLMGKEVGFFIIRASQSSPGDFSISVRHEDDVQHFKVMRDNKGNYFLWTEKFPSLNKLVDYYRTNSISRQKQIFLRDRTREDQGHRGNSLDRRSQGGPHLSGAVGEEIRPSMNRKLSDHPPTLPLQQHQHQPQPPQYAPAPQQLQQPPQQRYLQHHHFHQERRGGSLDINDGHCGTGLGSEMNAALMHRRHTDPVQLQAAGRVRWARALYDFEALEDDELGFHSGEVVEVLDSSNPSWWTGRLHNKLGLFPANYVAPMTR
notes: Deletion of residues 2-53; also called Gads ΔN; Gads lacking the N-SH3
B7: binds [8].

B8: full length MBP-Gads F92A/R109A (other, not shown: large carriers; small tags and cut ends)
chain: MEAVAKFDFTASGEDELSFHTGDVLKILSNQEEWFKAELGSQEGYVPKNFIDIQFPKWFHEGLSRHQAENLLMGKEVGFFIIRASQSSPGDASISVRHEDDVQHFKVMADNKGNYFLWTEKFPSLNKLVDYYRTNSISRQKQIFLRDRTREDQGHRGNSLDRRSQGGPHLSGAVGEEIRPSMNRKLSDHPPTLPLQQHQHQPQPPQYAPAPQQLQQPPQQRYLQHHHFHQERRGGSLDINDGHCGTGLGSEMNAALMHRRHTDPVQLQAAGRVRWARALYDFEALEDDELGFHSGEVVEVLDSSNPSWWTGRLHNKLGLFPANYVAPMTR
notes: Full length human Gads with double mutation; also called full length Gads F92A/R109A
B8: no binding [9].

B9: no binding [10].

B10: N-terminally twin-strep-tagged full length human Gads-GFP F92A/R109A (other)
chain: MEAVAKFDFTASGEDELSFHTGDVLKILSNQEEWFKAELGSQEGYVPKNFIDIQFPKWFHEGLSRHQAENLLMGKEVGFFIIRASQSSPGDASISVRHEDDVQHFKVMADNKGNYFLWTEKFPSLNKLVDYYRTNSISRQKQIFLRDRTREDQGHRGNSLDRRSQGGPHLSGAVGEEIRPSMNRKLSDHPPTLPLQQHQHQPQPPQYAPAPQQLQQPPQQRYLQHHHFHQERRGGSLDINDGHCGTGLGSEMNAALMHRRHTDPVQLQAAGRVRWARALYDFEALEDDELGFHSGEVVEVLDSSNPSWWTGRLHNKLGLFPANYVAPMTR
notes: Expressed in dG32 T cells; also called Gads F92A/R109A; not shown: N-terminal twin-strep tag; C-terminal monomeric GFP (A206K) from pMIGR
B10: no binding [11].

B11: MBP-Gads lacking the C-terminal SH3 (ΔCSH3 Gads, Δ274-328) (other)
chain: MEAVAKFDFTASGEDELSFHTGDVLKILSNQEEWFKAELGSQEGYVPKNFIDIQFPKWFHEGLSRHQAENLLMGKEVGFFIIRASQSSPGDFSISVRHEDDVQHFKVMRDNKGNYFLWTEKFPSLNKLVDYYRTNSISRQKQIFLRDRTREDQGHRGNSLDRRSQGGPHLSGAVGEEIRPSMNRKLSDHPPTLPLQQHQHQPQPPQYAPAPQQLQQPPQQRYLQHHHFHQERRGGSLDINDGHCGTGLGSEMNAALMHRRHTDPVQLQAAGRVTR
notes: Deletion of residues 274-328; also called lacking the C-SH3 domain; not shown: N-terminal MBP tag and its linker from pMAL-C5x (NEB)
B11: binds [12].

B12: MBP-Gads lacking the linker (Δlinker Gads, Δ154-267) (other)
chain: MEAVAKFDFTASGEDELSFHTGDVLKILSNQEEWFKAELGSQEGYVPKNFIDIQFPKWFHEGLSRHQAENLLMGKEVGFFIIRASQSSPGDFSISVRHEDDVQHFKVMRDNKGNYFLWTEKFPSLNKLVDYYRTNSISRQKQIFLRDRTREDQQAAGRVRWARALYDFEALEDDELGFHSGEVVEVLDSSNPSWWTGRLHNKLGLFPANYVAPMTR
notes: Deletion of residues 154-267; also called lacking the linker domain; not shown: N-terminal MBP tag and its linker from pMAL-C5x (NEB)
B12: binds [12].

B13: MBP-Gads lacking the C-terminal SH3 and linker (ΔC-SH3+linker, Δ154-328) (other)
chain: MEAVAKFDFTASGEDELSFHTGDVLKILSNQEEWFKAELGSQEGYVPKNFIDIQFPKWFHEGLSRHQAENLLMGKEVGFFIIRASQSSPGDFSISVRHEDDVQHFKVMRDNKGNYFLWTEKFPSLNKLVDYYRTNSISRQKQIFLRDRTREDQTR
notes: Deletion of residues 154-328; also called lacking the C-SH3 domain and the linker domain; not shown: N-terminal MBP tag and its linker from pMAL-C5x (NEB)
B13: binds [12].
